We go through nine molecules from patent US20030109481, “Tumour-cell specific gene expression and its use in cancer therapy” (published 2003).

Holding throughout (conditions): tags: baculovirus-expressed
The target of data set [1] is T1, E2F-1/DP1 heterodimer (UniProt Q01094;Q14186 Q01094:1-437,Q14186:1-410). Briefly: EMSA; stated as similar results to first mutation. (In general: Mobility shift assays separate free from complexed probe on a gel.)
Data set [2] deals with T1, E2F-1/DP1 heterodimer. Nature of the data set: EMSA.
Data set [3] concerns the target T1, E2F-1/DP1 heterodimer. Nature of the data set: EMSA; mutation abolishes binding; promoter activity reduced at least 2-fold but not activation by E2F-1.
In data set [4] the target is T1, E2F-1/DP1 heterodimer. Briefly: EMSA; mutation abolished E2F-1 binding; promoter activity reduced about 2-fold and E2F-1 activation suppressed.

T1 sequence (Q01094 whole entry, chain 1 of 2): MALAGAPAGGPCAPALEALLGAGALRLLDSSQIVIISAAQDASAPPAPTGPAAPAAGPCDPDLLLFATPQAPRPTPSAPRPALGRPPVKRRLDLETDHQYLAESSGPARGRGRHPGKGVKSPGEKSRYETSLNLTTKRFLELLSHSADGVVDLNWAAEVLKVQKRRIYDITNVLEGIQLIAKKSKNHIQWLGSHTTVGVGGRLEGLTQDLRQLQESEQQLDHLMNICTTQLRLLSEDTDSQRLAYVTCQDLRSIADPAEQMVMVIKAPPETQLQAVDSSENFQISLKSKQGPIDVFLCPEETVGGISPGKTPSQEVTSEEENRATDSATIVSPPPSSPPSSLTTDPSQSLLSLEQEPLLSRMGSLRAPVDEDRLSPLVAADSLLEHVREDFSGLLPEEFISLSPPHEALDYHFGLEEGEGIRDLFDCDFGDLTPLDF
T1 sequence (Q14186 whole entry, chain 2 of 2): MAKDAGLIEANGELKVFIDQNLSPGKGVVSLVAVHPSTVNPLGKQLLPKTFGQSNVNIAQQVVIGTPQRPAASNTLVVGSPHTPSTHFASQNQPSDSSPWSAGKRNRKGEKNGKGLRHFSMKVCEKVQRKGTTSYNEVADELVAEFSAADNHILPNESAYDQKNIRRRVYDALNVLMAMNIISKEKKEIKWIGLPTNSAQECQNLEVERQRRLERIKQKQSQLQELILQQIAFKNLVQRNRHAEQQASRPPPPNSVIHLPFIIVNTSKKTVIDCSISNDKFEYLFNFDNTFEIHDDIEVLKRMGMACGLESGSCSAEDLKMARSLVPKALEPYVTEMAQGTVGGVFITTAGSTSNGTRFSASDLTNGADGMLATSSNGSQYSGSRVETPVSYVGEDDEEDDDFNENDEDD

B1: region 2 mutant 3 (dsDNA)
DNA 1: AATCCCGCCCGGATCCGCAGG
DNA 2: CCTGCGGATCCGGGCGGGATT
Consider B1, for which, in the data set with E2F-1/DP1 heterodimer [1], the binding result is listed as “no binding”.

B2: Skp2 promoter region 3 (dsDNA)
DNA 1: AGAGCGGGATGCAGAACTCCGCGCGCGCGGTGG
DNA 2: CCACCGCGCGCGCGGAGTTCTGCATCCCGCTCT
As for B2, in the data set with E2F-1/DP1 heterodimer [2], the binding result is reported as “binds”.

B3: Skp2 promoter region 2 (dsDNA)
DNA 1: AATCCCGCCCGGCGCCGCAGG
DNA 2: CCTGCGGCGCCGGGCGGGATT
B3: in the data set with E2F-1/DP1 heterodimer [2], the binding result is “binds”.

B4: Skp2 promoter region 4 (dsDNA)
DNA 1: AGTTCGCGGGTCC
DNA 2: GGACCCGCGAACT
With B4, the binding result in the data set with E2F-1/DP1 heterodimer [2] is “binds”.

B5: region 2 mutant 4 (dsDNA)
DNA 1: AATCCCGCCCGGCGCATCAGG
DNA 2: CCTGATGCGCCGGGCGGGATT
With B5, the binding result in the data set with E2F-1/DP1 heterodimer [1] was “no binding”.

B6: Skp2 promoter region 1 (dsDNA)
DNA 1: GCTCCGGGAAAA
DNA 2: TTTTCCCGGAGC
Consider B6, for which the binding result with E2F-1/DP1 heterodimer [2] was “no binding”.

B7: region 2 mutant 2 (dsDNA)
DNA 1: AATCCATCCCGGCACCTCAGG
DNA 2: CCTGAGGTGCCGGGATGGATT
With B7, the binding result with E2F-1/DP1 heterodimer [1] was “no binding”.

B8: region 2 mutant 1 (dsDNA)
DNA 1: AATCCCACCCGGCACCTCAGG
DNA 2: CCTGAGGTGCCGGGTGGGATT
For B8, in the data set with E2F-1/DP1 heterodimer [3], the binding result is on record as “no binding”.

B9: region 3 mutant (dsDNA)
DNA 1: AGAGCATGCAGAACTCCGCACGAGCGGTGG
DNA 2: CCACCGCTCGTGCGGAGTTCTGCATGCTCT
On to B9, for which, in the data set with E2F-1/DP1 heterodimer [4], the binding result is listed as “no binding”.
